In patent US20110189194A1, “USE OF CD95 INHIBITORS FOR THE TREATMENT OF INFLAMMATORY DISORDERS” (Deutsches Krebsforschungszentrum Stiftung des offentlichen …, priority 2008, published 2011):
“Also recorded” adds a separate entry of the source.

B1: CD95-RB69: CD95L-neutralizing trimeric fusion protein: human CD95-ECD (M1-E168) fused to bacteriophage RB69 fibritin foldon domain, with streptag-II (protein)
chain: MVGIWTLLPLVLTSVARLSSKSVNAQVTDINSKGLELRKTVTTVETQNLEGLHHDGQFCHKPCPPGERKARDCTVNGDEPDCVPCQEGKEYTDKAHFSSKCRRCRLCDEGHGLEVEINCTRTQNTKCRCKPNFFCNSTVCEHCDPCTKCEHGIIKECTLTSNTKCKEEGSSGSSGSSGSGYIEDAPSDGKFYVRKDGAWVELPTASGPSSSSSSAWSHPQFEK
modifications: CD95-RB69 fusion protein
notes: CD95L-neutralizing trimeric fusion protein: human CD95-ECD (M1-E168) fused to bacteriophage RB69 fibritin foldon domain, with streptag-II

Assays:
[1] = treated within the first 8 h of injury, compared to placebo, naloxone, or MPSS at later time points; cited from earlier work
peritoneum = assay: Thioglycolate-induced peritonitis, infiltration of neutrophils; format: in vivo, mice
Description: (§1) Mice were treated intravenously 5 minutes after SCI or induction of thioglycolate-induced peritonitis with 50 μg (solved in 200 μl sterile PBS) of either CD95-RB69 or a mutated form, CD95-(R87S)-RB69, which is unable to bind CD95L.
For thioglycolate-induced peritonitis, 1 ml of 3% thioglycolate broth (Fluka #70157) was injected i.p. in CD95L^f/f;LysMcre and CD95L^f/f mice or in wt mice acutely treated with CD95-RB69 or its respective control. In this model, neutrophils are known to start infiltrating the peritoneum within the first hours, whereas macrophage infiltration peaks at 72 h. At the indicated times, mice were sacrificed, blood samples collected and peritoneal cavities lavaged with 10 ml sterile Hanks balanced salt solution (HBSS; Invitrogen #14170-138) containing 0.25% bovine serum albumin (Roche #10735094001). Total cell counts were performed in a Neubauer hematocytometer (Brand), and differential cell counts were carried out by flow cytometry. Results are expressed as the absolute number of neutrophils or macrophages×10^5/cavity. For every experiment performed, blood immune cell populations were analyzed by the appropriate cell markers.

mouse CD95L = biological target: T1, mouse CD95L (Mus musculus, UniProt P41047); assay: Neutralisation of mouse CD95L-T4 induced apoptosis on Jurkat cells (DEVD-AFC cleavage); format: cell-based; conditions: 250 ng/ml mouse CD95L-T4
T1 construct: T4 (bacteriophage T4 fibritin foldon trimerisation domain)
T1 sequence (P41047 with tags, fused parts or gaps limits assumed): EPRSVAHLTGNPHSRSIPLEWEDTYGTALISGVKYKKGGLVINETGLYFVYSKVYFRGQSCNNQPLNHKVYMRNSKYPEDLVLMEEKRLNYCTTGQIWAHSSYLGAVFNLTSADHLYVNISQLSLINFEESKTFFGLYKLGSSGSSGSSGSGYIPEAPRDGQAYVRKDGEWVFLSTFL
Description: (§2) Mutation of R87S abrogates the ability of the CD95-RB69 protein to inhibit CD95L-mediated killing of Jurkat cells. Jurkat cells were incubated with 250 ng/ml of human (A) or mouse (B) CD95L-T4 in the presence of wild-type and mutant CD95-RB69 in duplicates for each concentration of the fusion proteins. Decreased cell death is represented by low DEVD-AFC cleavage rates.
(§3) While we were using a human CD95 fusion protein in mouse, we had to analyse the binding of the R87S based control-protein for the human CD95/murine CD95L-interaction prior to the studies performed. We addressed this question by examining the ability of the CD95-fusion proteins to neutralise the apoptosis inducing capacity of either human or mouse CD95L on Jurkat cells in vitro.

injured spinal cord [2] = assay: Gene expression profiling (microarray) of spinal cord 24 h after SCI; format: in vivo, mice; conditions: compared to vehicle-treated
Description: as §1
For tissue, spinal cords were dissected out and RNA was extracted with the mirVana microRNA Extraction Kit essentially according to the manufacturer's protocol (Ambion #AM1560). mRNA of injured mice were represented as normalized to the respective uninjured animals. Cells from peritoneal exudates or bone-marrow derived cells were washed with PBS and taken up in RLT-buffer containing β-mercaptoethanol. RNA was extracted using the RNeasy Mini Kit (Qiagen, #74104).
.Cel files were generated using Affymetrix software and imported into Chipinspector. The data were analyzed by Genomatix Chipinspector as described by the manufacturer's guidelines (Genomatix GmbH, Munich, Germany, http://www.genomatix.de). dChip software was used for hierarchical clustering of datasets (http://biosuntharvard.edu/complab/dchip/). A 5% p-value was applied as a cut-off. […]

human CD95L = biological target: T2, human CD95L (Homo sapiens, UniProt P48023); assay: Neutralisation of human CD95L-T4 induced apoptosis on Jurkat cells (DEVD-AFC cleavage); format: cell-based; conditions: 250 ng/ml human CD95L-T4
T2 construct: T4 (bacteriophage T4 fibritin foldon trimerisation domain)
T2 sequence (P48023 with tags, fused parts or gaps limits assumed): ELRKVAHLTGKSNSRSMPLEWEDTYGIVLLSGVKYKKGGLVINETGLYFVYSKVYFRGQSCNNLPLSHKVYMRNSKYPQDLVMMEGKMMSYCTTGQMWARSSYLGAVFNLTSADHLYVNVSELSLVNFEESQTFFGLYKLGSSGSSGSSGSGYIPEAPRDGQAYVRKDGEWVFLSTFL
Description: as §2, §3

injured spinal cord [3] = assay: Immune cell infiltration into the injured spinal cord after SCI (flow cytometry); format: in vivo, mice
Description: SCI models: Transection injury of the spinal cord was performed as previously described (Demjen et al., 2004). For the crush injury model, forceps were held on the spinal cord for 15 seconds resulting in a lateral compression of the spinal cord (Plemel et al., 2008). Immediately following injury and for an additional week mice received antibiotics (Gentamycin, 5 ml/kg of a 0.2 mg/ml solution) to prevent infections. Post-operative care included housing of the animals at 27° C., food and water ad libitum, and manual expression of the bladders once daily.
as §1
Stainings were performed on cells derived from bone marrow, peritoneum, blood or spinal cord tissue. For preparation of mouse cells derived from spinal cord tissue, the animals were perfused with HBSS to remove blood from the organs. Then the spinal cord (1 cm around the lesion site) was isolated and lysed for 3 h in thermolysin (0.5 mg/ml, Sigma #T-7902) on a shaker at 37° C. Tissue was incubated for 10 more minutes in trypsin 0.5%-EDTA (Invitrogen #25300096) and finally homogenized by passing 10 times through a Pasteur pipette and through a 40 μm cell strainer (BD #352340).
For all stainings, cells were resuspended in FACS buffer (PBS, 0.2% NaN3) and preincubated in Fc block for 10 minutes before stained with the respective antibodies 30 minutes on ice. For intracellular stainings blood samples were fixed with 4% PFA after Ery Lysis and permeabilized with methanol before the staining. Samples were run on a FACSCantoll flow cytometer (BD) and analyzed using FACSDiva (BD) software or FlowJo software. For all FACS analyses done on cells derived from spinal cord tissue 1,000,000 events were counted.
For all tissue analysis, neutrophils were identified as CD45 positive, GR-1 high-positive and their characteristic forward (FSC) and side scatter (SSC) profile. […]

[4] = 24 h after SCI, 50 μg i.v. 5 minutes after SCI, 1,000,000 events counted

Row | Molecule | motor and sensory function of spinal injured patients [1] | Neutrophil number ± SEM in peritoneal cavity (peritoneum; 6 h after thioglycolate, 50 μg i.v. 5 minutes after induction) | infiltration of neutrophils into the peritoneum (in words) (peritoneum; 6 hours after thioglycolate injection) | neutralisation of the apoptotic activity of mouse CD95L (mouse CD95L) | expression of genes involved in apoptosis (injured spinal cord [2]) | expression of genes involved in the immune response (injured spinal cord [2]) | neutralisation of the apoptotic activity of human CD95L (human CD95L) | CD45 cells in injured spinal cord, Events ± SEM (injured spinal cord [3]; [4]) | Neutrophils in injured spinal cord, Events ± SEM (injured spinal cord [3]; [4]) | infiltration of neutrophils into the lesion site (in words) (injured spinal cord [3]; 24 hours after injury, systemic administration)
1 | C[C@H]1C[C@@H]2[C@H]([C@@H](O)C[C@@]3(C)[C@H]2CC[C@]3(O)C(=O)COC(=O)CCC(=O)O)[C@@]2(C)C=CC(=O)C=C12 [MPSS, methylprednisolone sodium succinate] | significantly improved motor and sensory function | – | – | – | – | – | – | – | – | –
2 | B1 | – | 13.92 ± 1.46 *10^5 | significantly reduced; also recorded: Reduced infiltration | efficiently neutralises | reduced; also recorded: down-regulation | down-regulation | efficiently neutralises | CD45: 698 ± 57 Events | Neutrophils: 400 ± 54 Events | decreased; also recorded: reduced
